According to the supplement of paper PMC9876800:

Tested on: peptide library, one residue held at a place counted from the S/T acceptor
Test: relative phosphorylation of the sub-library (ratio to the mean residue at this position); higher = residue favoured
Conditions: human
Procedure, shortened: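 Human or orthologue kinase constructs, purified and recombinant, were incubated under kinase-specific conditions in 384-well plates with biotinylated degenerate peptide sub-libraries. Each sub-library fixed one residue at one position around a central Ser/Thr. Incubations lasted 90 min with peptides at 50 μM and 50 μM ATP spiked with γ-32P-ATP, after which spots on streptavidin membranes were phosphorimaged and quantified by densitometry. Relative sub-library phosphorylation is a ratio to the mean residue at that position.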

MAP3K5, construct: aa659-951 (from UniProt Q99683)
relative phosphorylation
Conditions	at +1	at +2	at +3	at +4	at -1	at -2	at -3	at -4	at -5
A fixed	0.385	0.72	0.897	0.901	0.825	1.66	1.44	1.09	1.01
D fixed	0.255	0.881	0.707	0.815	0.699	0.504	0.689	0.908	0.899
E fixed	0.344	0.473	0.652	0.812	0.685	0.471	0.738	0.906	0.815
F fixed	2	1.32	1.22	0.964	1.08	0.77	0.826	1.04	1.17
G fixed	0.324	0.521	0.951	0.926	1.58	1.12	0.979	1.08	1.28
H fixed	1.1	1.06	1.04	1.12	1.06	0.985	1.24	1.02	1.19
I fixed	2.04	0.648	1.01	0.717	0.507	1.12	0.905	0.897	0.75
K fixed	0.375	1.08	1.04	1.88	1.13	0.61	1.02	0.913	1.13
L fixed	1.33	0.806	1.03	0.943	0.993	1.12	1.01	0.827	0.747
M fixed	0.894	0.812	1.06	0.877	1.06	1.17	0.894	1.04	0.88
N fixed	0.382	0.615	0.793	0.743	1.04	1.36	0.989	0.807	0.792
P fixed	0.352	0.543	1.03	1.02	1.07	1.22	1.36	1.22	1.41
Q fixed	0.498	0.64	0.806	0.89	0.775	0.987	1	1.01	0.919
R fixed	0.401	1.34	1.31	1.5	1.6	0.941	1.04	0.965	1.08
V fixed	1.78	0.645	1.01	0.723	0.54	1.09	0.835	1.12	0.836
W fixed	1.97	1.32	1.14	1.33	0.981	0.777	1.12	1.08	0.996
Y fixed	2.56	3.57	1.29	0.846	1.37	1.09	0.904	1.07	1.09
pThr fixed	0.556	0.528	0.673	0.597	0.672	0.847	0.914	0.985	1
pTyr fixed	0.623	0.518	0.863	0.704	1.47	0.793	0.884	1.04	1.24
